Assay in all cases: fluorescence polarisation
On the technique in general: Fluorescence polarisation rises when a labelled molecule tumbles more slowly, as on binding a larger partner.

Experiment [1] addresses SRSF1 RRM1 (residues 14–90), Alexa Fluor 488 labelled (human) (UniProt Q07955).
The target is the same in experiment [2]. This is another data set of the same source.
Experiment [3] concerns the target Hyper‐phosphorylated SRSF1 (phosphorylated by Clk1), Alexa Fluor 488 labelled at T248C (human) (UniProt Q07955).
Experiment [4] deals with U1‐70K BAD1 255–278 (human) (UniProt P08621).

Like-named read-outs stand apart in the source and are kept apart here.

The Kd is the free concentration of one partner at which half of the binding sites on the other are occupied at equilibrium, for simple one-to-one binding.

Chain of U1‐70K RRM (residues 64–202) (P08621 64-202): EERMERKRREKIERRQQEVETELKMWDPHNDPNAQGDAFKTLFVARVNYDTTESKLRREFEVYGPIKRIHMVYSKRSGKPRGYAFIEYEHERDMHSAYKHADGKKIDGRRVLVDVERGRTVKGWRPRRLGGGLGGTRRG
Chain of Hyper‐phosphorylated SRSF1 (phosphorylated by Clk1), Alexa Fluor 488 labelled at T248C (human) (Q07955 whole entry T248C): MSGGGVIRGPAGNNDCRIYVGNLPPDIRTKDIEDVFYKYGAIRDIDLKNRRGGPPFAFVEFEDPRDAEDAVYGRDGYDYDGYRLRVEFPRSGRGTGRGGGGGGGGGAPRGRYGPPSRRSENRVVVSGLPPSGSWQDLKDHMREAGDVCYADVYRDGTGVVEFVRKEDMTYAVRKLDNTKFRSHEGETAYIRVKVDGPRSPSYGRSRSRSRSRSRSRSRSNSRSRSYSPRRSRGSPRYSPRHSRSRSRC
Chain of U1‐70K BAD1 (residues 229–306) (P08621 229-306): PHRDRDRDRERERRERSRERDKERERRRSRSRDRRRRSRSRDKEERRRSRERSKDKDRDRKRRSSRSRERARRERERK
Chain of Hyper phosphorylated SRSF1 RS (residues 199–248), unlabelled (Q07955 199-248): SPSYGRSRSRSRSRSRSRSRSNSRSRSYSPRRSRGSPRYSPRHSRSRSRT
Chain of U1‐70K RRM 92–202 (P08621 92-202): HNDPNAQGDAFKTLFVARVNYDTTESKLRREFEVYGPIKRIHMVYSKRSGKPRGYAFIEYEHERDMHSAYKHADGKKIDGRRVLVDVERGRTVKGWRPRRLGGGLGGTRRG

Take “U1‐70K RRM 92–202 (from UniProt P08621 92-202) (domain or fragment)”: the Kd in experiment [1] was determined as 7000 nM.
“U1‐70K BAD1 (residues 229–306) (from UniProt P08621 229-306) (domain or fragment)” displayed a dissociation constant (Kd) in experiment [2] of 240 nM.
Take U1‐70K ΔBAD2 (domain or fragment): the Kd in experiment [3] came out at 650 nM.
For “U1‐70K RRM (residues 64–202) (from UniProt P08621 64-202) (domain or fragment)”, the Kd in experiment [2] was 3000 nM; in experiment [1], 6000 nM.
As for “Hyper phosphorylated SRSF1 RS (residues 199–248), unlabelled (from UniProt Q07955 199-248) (domain or fragment)”, the dissociation constant (Kd) in experiment [4] was found to be 2000 nM.
